Assay [1] deals with LPS-induced leukocyte infiltration into the mouse lung. The experiment in a line: Murine model of LPS-induced pulmonary inflammation. The note with it: single IV 3 mg/kg the day before LPS 10 μg/mouse; lavage 24 hours later. It counts as in vivo. The source says:
This study was designed to investigate the in vivo potential of test compounds in a murine model of neutrophil accumulation in the lung induced by airway instillation of lipopolysaccharide (LPS).
Treatment Regimen. Sixty-four (64) C57BL/6 mice (Jackson Laboratory, Bar Harbor, Me., USA, 8 week old females) were assigned to study groups of 8 mice, and housed in specific pathogen-free conditions with sterile food and water.
In brief, animals received a single intravenous injection of the vehicle of Fc-HRS(2-60) (20 mM Histidine/125 mM NaCl/10 mM Methionine/3% Sucrose/0.02% PS20, pH 6.9), Fc-HRS(2-60) (1, 3, or 10 mg/kg), or HRS(2-60)-COMP (3 mg/kg). The following day, mice were anesthetized by isoflurane inhalation and, using a gavage needle and attached syringe, 50 μL of LPS (Sigma L3024, E. coli 0111-B4, 10 μg/mouse) formulated in PBS, or PBS alone, was delivered to the back of the oral soft palate for inhalation. […]
Flow Cytometry Analysis. […] NRP2 was detected by addition of 25 μL of rabbit anti-mouse NRP2 (Cell Signaling Technology) at 10 μg/mL in FWB for 1 h in the dark on ice, and cells were then washed (data not shown). […]
Using GraphPad Prism 7, results were analyzed by one-way ANOVA followed by Dunn's multiple comparison test using the LPS/Vehicle group as the comparator. […]

Assay [2] relates to murine bone marrow derived macrophages. The experiment in a line: Efferocytosis in bone marrow derived macrophages (pHrodo-loaded apoptotic jurkat cells). It counts as cell-based, mouse. As to conditions: 100 nM for 5 days during monocyte differentiation. The source says:
This study was designed to investigate the in vivo potential of test compounds to modulate efferocytosis in murine bone marrow derived macrophages. Efferocytosis refers to the process by which dying/dead cells (e.g. apoptotic or necrotic cells) are removed by phagocytic cells. During efferocytosis, the cell membrane of phagocytic cells engulfs the apoptotic cell, forming a large fluid-filled vesicle containing the dead cell. Efferocytosis can be performed not only by ‘professional’ phagocytic cells such as macrophages or dendritic cells, but also by many other cell types including epithelial cells, fibroblasts and other cells. To distinguish them from living cells, apoptotic cells carry specific ‘eat me’ signals, such as the presence of phosphatidyl serine (resulting from phospholipid flip-flop) or calreticulin on the outer leaflet of the cell membrane. […] Like phagocytosis, acidification of the endosome, is a central aspect of endosome maturation, which can be readily monitored through the use of a pH sensitive probe, as described herein.
Methods and protocol. […] Confocal images were captured in Zeiss 710 Confocal Laser Scanning Microscope equipped with 4 lasers and images were captured and analyzed using Zeiss Zen 2010 software. For quantification, the intensity of red fluorescence in each field were measured and the arithmetic mean was calculated and represented graphically.

The values below come from patent publication US20230039401A1, “COMPOSITIONS AND METHODS FOR TREATING NRP2-ASSOCIATED DISEASES” (aTyr Pharma, Inc., priority 2018, published 2023).

B1: HRS(2-60)-COMP: pentamer of HRS(2-60): HARS aa 2-60 fused to COMP pentameric domain (aa 28-73); made His tagged; SEQ ID NO:175 without tags (protein)
chain: ERAALEELVKLQGERVRGLKQQKASAELIEEEVAKLLKLKAQLGPDESKQKFVLKTPKGGGGSGGGGSSDLGPQMLRELQETNAALQDVRELLRQQVREITFLKNTVMECDAC
modifications: His tag; Made in Lab - HRS-COMP Fusion Protein
Turning to B1, in assay [1], the “number of airway neutrophils accumulating in response to LPS” value is given as “significantly reduced”. Also, the “efferocytosis (spectral shift of pH sensitive dye)” value in assay [2] is given as “profound inhibition of efferocytosis”.
